B1: wild-type (WT) calsequestrin type 1 (CSQ1), rabbit [rabbit] / skeletal triadin 95 kDa (trisk95) [rabbit (endogenous in skeletal muscle SR vesicles)] (parent)
chain 1: EEGLDFPEYDGVDRVINVNAKNYKNVFKKYEVLALLYHEPPEDDKASQRQFEMEELILELAAQVLEDKGVGFGLVDSEKDAAVAKKLGLTEEDSIYVFKEDEVIEYDGEFSADTLVEFLLDVLEDPVELIEGERELQAFENIEDEIKLIGYFKNKDSEHYKAFKEAAEEFHPYIPFFATFDSKVAKKLTLKLNEIDFYEAFMEEPVTIPDKPNSEEEIVNFVEEHRRSTLRKLKPESMYETWEDDMDGIHIVAFAEEADPDGYEFLEILKSVAQDNTDNPDLSIIWIDPDDFPLLVPYWEKTFDIDLSAPQIGVVNVTDADSVWMEMDDEEDLPSAEELEDWLEDVLEGEINTEDDDDEDDDDDDDD
chain 2: MTEITAEGNASTTTTVIDSKNGSVPKSPGKVLKRTVTEDLVTTFSSPAAWLLVIALIITWSAVAVVMFDLVDYKNFSASSIAKMGSDPLKLVHDAVEETTDWIYGFFSLLSDIISSDGDEEDDEGDEDTAKGEIEEPPLKRKDIHKEKIEKQEKPERKIPTKVVHKEKEKEKEKVKEKEKPEKKATHKEKLEKKEKPETKTVTKEEKKARTKEKIEEKTKKEVKGVKQEKVKQTVAKAKEVQKTPKPKEKESKETAAVSKQEQKDQYAFCRYMIDIFVHGDLKPGQSPAIPPPSPTEQASRPTPALPTPEEKEGEKKKAEKKVTTETKKKAEKEDAKKKSEKETDIDMKKKEPGKSPDTKPGTVKVTTQAATKKDEKKEDSKKAKKPAEEQPKGKKQEKKEKHEEPAKSTKKEHAAPSEKQAKAKIERKEEVSAASTKKAVPAKKEEKTTKTVEQETRKEKPGKISSVLKDKELTKEKEVKVPASLKEKGSETKKDEKTSKPEPQIKKEEKPGKEVKPKPPQPQIKKEEKPEQDIMKPEKTALHGKPEEKVLKQVKAVTTEKHVKPKPAKKAEHQEKEPPSIKTDKPKSTSKGMPEVTESGKKKIEKSEKEIKVPARRESHQLQNVTKAEKPARGSKEGFEDVPASKKAKEEAEEVSSTKKQKSPISFFQCVYLDGYNGYGFQFPVTPAQYPGESSGKPNSPGPKQ

In this experiment the parent is B1. Put plainly: co-immunoprecipitation (CSQ1 IP, Western blot densitometry). As to conditions: with skeletal triadin 95 kDa (trisk95) [rabbit (endogenous in skeletal muscle SR vesicles)]; 1 mM Ca2+; parent: 100; read off a plot. (A western blot detects proteins with antibodies after separation by electrophoresis.)
As for chain 1 D363A D365A D367A, the percent of parent (% relative binding) worked out at 84.

For the variant chain 1 D367A, the percent of parent (% relative binding) came to 86.

As to chain 1 D365A D367A, the percent of parent (% relative binding) is 110.
